Laboratory results from publication PMC2847222.

Molecular target: RepD replication initiation protein of Staphylococcus aureus plasmid pC221 (wild type) (Staphylococcus aureus (plasmid pC221)) (UniProt P03065)
Assay: AUC

Chain of UniProt P03065 (P03065 whole entry): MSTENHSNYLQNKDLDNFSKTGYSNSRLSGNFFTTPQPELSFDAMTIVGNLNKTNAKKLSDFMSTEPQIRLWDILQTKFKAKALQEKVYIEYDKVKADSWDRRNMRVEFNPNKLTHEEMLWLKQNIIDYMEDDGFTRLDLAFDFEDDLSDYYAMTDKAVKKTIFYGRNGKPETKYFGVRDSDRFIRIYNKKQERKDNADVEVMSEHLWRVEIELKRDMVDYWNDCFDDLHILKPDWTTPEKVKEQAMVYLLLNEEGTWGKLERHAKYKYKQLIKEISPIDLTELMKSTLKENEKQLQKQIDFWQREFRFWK

B1: Bacillus stearothermophilus PcrA helicase (enzyme)
chain: MNFLSEQLLAHLNKEQQEAVRTTEGPLLIMAGAGSGKTRVLTHRIAYLMAEKHVAPWNILAITFTNKAAREMRERVQSLLGGAAEDVWISTFHSMCVRILRRDIDRIGINRNFSILDPTDQLSVMKTILKEKNIDPKKFEPRTILGTISAAKNELLPPEQFAKRASTYYEKVVSDVYQEYQQRLLRNHSLDFDDLIMTTIQLFDRVPDVLHYYQYKFQYIHIDEYQDTNRAQYTLVKKLAERFQNICAVGDADQSIYRWRGADIQNILSFERDYPNAKVILLEQNYRSTKRILQAANEVIEHNVNRKPKRIWTENPEGKPILYYEAMNEADEAQFVAGRIREAVERGERRYRDFAVLYRTNAQSRVMEEMLLKANIPYQIVGGLKFYDRKEIKDILAYLRVIANPDDDLSLLRIINVPKRGIGASTIDKLVRYAADHELSLFEALGELEMIGLGAKAAGALAAFRSQLEQWTQLQEYVSVTELVEEVLDKSGYREMLKAERTIEAQSRLENLDEFLSVTKHFENVSDDKSLIAFLTDLALISDLDELDGTEQAAEGDAVMLMTLHAAKGLEFPVVFLIGMEEGIFPHNRSLEDDDEMEEERRLAYVGITRAEEELVLTSAQMRTLFGNIQMDPPSRFLNEIPAHLLETASRRQAGASRPAVSRPQASGAVGSWKVGDRANHRKWGIGTVVSVRGGGDDQELDIAFPSPIGIKRLLAKFAPIEKV
With B1 as the binder, how does the Kd read?
Its Kd is 98.5 nM.
